According to the DeepSol protein solubility set:

Test: soluble on expression in E. coli; label from the status in PepcDB or PDB records

| Sequence | soluble on expression in E. coli |
| --- | --- |
| MKINNGPVLCPHCGCLSAYYEIDRLAAIREKVNKEGGSAAWDSTLQAHKKKAFCLMCHKSIDEVVIGQSDAPESTK | not soluble |
| MKINQMKKDQLFEGFYLIKSAEVRKTRAGKDFISLTFQDDTGEISGNLWDAQPYNVEEFTAGKVVFMKGRREVYNGTPQVNQITLRNVRPGEPNDPKDFKEKAPVSVTEVRDYLEQMLFKIENATWQRIVRALYRKYDKEFYTYPAAKTNHHAFESGLAYHTATMVRLADSIGDIYPDLNKSLLFAGIMLHDLAKVIELTGPDNTEYTVRGNLIGHISLINEEITKVISELQIDDTKEEVIVLRHVILSHHGQLEYGSPVRPRIMEAEIIHMIDNIDANMMMMTTALSRVSEGEMTNRIFAMDNRSFYKPNY | not soluble |
| MKISLSTSLFSIEQKVEYFNLNYQSLSDFSVVAKLNYTFTWYGNDFSIGFAPKKGEKLYFDLFFTFKASPNHPFAAENFKPDSEAIDFYVSFSWRLEGKDEVSKKLFELSVFGRARAFQIDDYKINLFSYLVYVIR | soluble |
| MKISRETLHQLIENKLCQAGLKREHAATVAEVLVYADARGIHSHGAVRVEYYAERISKGGTNREPEFRLEETGPCSAILHADNAAGQVAAKMGMEHAIKTAQQNGVAVVGISRMGHSGAISYFVQQAARAGFIGISMCQSDPMVVPFGGAEIYYGTNPLAFAAPGEGDEILTFDMATTVQAWGKVLDARSRNMSIPDTWAVDKNGVPTTDPFAVHALLPAAGPKGYGLMMMIDVLSGVLLGLPFGRQVSSMYDDLHAGRNLGQLHIVINPNFFSSSELFRQHLSQTMRELNAITPAPGFNQVYYPGQDQDIKQRKAAVEGIEIVDDIYQYLISDALYNTSYETKNPFAQLEHHHHHH | soluble |
| MKITSYVSFLYCLCLMLASPTVQASEVRTAIFEGKPCINPPHVVGNYPATPFLFYIPTSGERPIKWHAENLPKGLKLDKETGIIKGKVVEKGTYKVMLKAENALGTDTQELLINIGDELLLTPPMGWNSWNTFGRHLTEELLLQTADAMVENGMRDLGYAFINIDDFWQLPERGADGHIQIDKTKFPRGIKYVADYLHERGFKLGIYSDAADKTCGGVCGSYGYEEIDARDFASWGVDLLKYDYCNAPAGRVEAMERYEKMGRALRATDRSIVFSICEWGQREPWKWAKKVGGHLWRVSGDIGDLWNRSTDEKGGLRGILNILEINAPLSEYARPGGWNDPDMLVVGIGGKSKSIGYESEGCTNEQYQSHFALWCMMASPLLCGNDVRQMNDSTLQILLNKDLIAINQDPLGIQAERAIRADHYDVWVKPLSDGSKAIACLNRISGPVDVELNVKTVEGLSLDRVYDVIEGSLVAEASTGWVVKLAPGECKVFICKLEHHHHHH | not soluble |
| MKITVIGAGNVGATTAFRLAEKQLARELVLLDVVEGIPQGKALDMYESGPVGLFDTKVTGSNDYADTANSDIVVITAGLPRKPGMTREDLLSMNAGIVREVTGRIMEHSKNPIIVVVSNPLDIMTHVAWQKSGLPKERVIGMAGVLDSARFRSFIAMELGVSMQDVTACVLGGHGDAMVPVVKYTTVAGIPVADLISAERIAELVERTRTGGAEIVNHLKQGSAFYSPATSVVEMVESIVLDRKRVLTCAVSLDGQYGIDGTFVGVPVKLGKNGVEHIYEIKLDQSDLDLLQKSAKIVDENCKMLDASQG | soluble |
| MKIVSIKIKNYRVFEDIKITNIPSFCVIIGANGTGKSTLFDVFGFLRDALKNNIRQALQIRGGFKEVVTRGKESEDIEIELKFRMEILATERLVTYILIIGQEGKKPVIKREILRYKRGEYGSPFHFLDFHNGQGYAIRNEESFESDEELEREEQKLESADILAIKGLGQFQRFKAANAIRSLIENWHVSDFHISDARGSKAALYAEHLSPTGDNIPIVAQYIYQEHPEIFAEILQRMKQRVPGISNVEAKEIEGGSLILKFQDQAFEDSFVDLYVSDGTIKMFAYLILLFDPKPHPLLCVEEPENQLYPTLLRELAEEFASYAHRGGQVFVSTHSPDFLNAVPLDSIFWLIKIQGVTKVEKAADHEVLRNLIAAGDLPGYLWNQGWFEGVAPLEHHHHHH | not soluble |
| MKIVYWSGTGNTEKMAELIAKGIIESGKDVNTINVSDVNIDELLNEDILILGCSAMADEVLEESEFEPFIEEISTKISGKKVALFGSYGWGDGKWMRDFEERMNGYGCVVVETPLIVQNEPDEAEQDCIEFGKKIANI | soluble |
| MKKDQYFNLEVNFLSNDNIVRMMMELDAAQSLGIYMMLLTHLRKADNYEASCCPLCMGAFARMYDLDAGVLQRVLREFDLFVLDEERQMFRSPYLDRVMARLEERRMINVANGKKGGRPKRMESTPETPMDKGEKPNQNQKSREEERRVTTVVKDNNSSNEEKTEKENSAAASDRLQIVSPPEDRGQLPLQPVLPWEMLVDQMAESESYMESMAMHSCMGKLFVERQEEVIAAFKEHIRRFGREDGLLFLRDVKLYFGNYLSPGGRPAQELKKRLLGSCRQSAEEELYRFEQLIGGQRTYLGHPIPKDAPPRPDRSAVWDEVHWKWGN | not soluble |
| MKKEKAIVVFSGGQDSTTCLLWALKEFEEVETVTFHYNQRHSQEVEVAKSIAEKLGVKNHLLDMSLLNQLAPNALTRNDIEIEVKDGELPSTFVPGRNLVFLSFASILAYQIGARHIITGVCETDFSGYPDCRDEFVKSCNVTVNLAMEKPFVIHTPLMWLNKAETWKLADELGALDFVKNNTLTCYNGIIADGCGECPACHLRSKGYEEYMVMKGERA | soluble |
| MKKEKDLSVAVLIDGDNASSEKMEDVMRFVSRYGAAVVRRIYGDWTKKSLSGWKDAARDYSFRMVQASSFVPGKNTTDIALVMDAMDILHEGRVGCFCLVASDGDYTLLAQRIRESGLTVLGYGEGKTPAALVRSCTEFLLADRKEEKPFQENTPEFFIQRDMEYFDKAFEQAADGKAEVSLSLIGGVLKKLMPKFKVKRYGCRTLGKLYERLEKYELVKTGKGVAGLVRIKS | not soluble |
| MKKFLALLLSVIIVFSLTACGGKNSGNNSNNSSNNNSSNNTGGKKIKIGMVTDVGGVNDGSFNQSAWEGLQRAQKELGVEVRYAESATDADYAPNIEAFIDEGYDLIICVGYMLADATRKAAEANPNQKFAIIDDASIDLPNVTCLMFEQSQASYLVGLVAGKMTKTNKVGFVVGMVSQTMNEFGYGYLAGVKDANPNATILQFNANSFSSTETGKSAATTMITNGADVIFHAAGGTGLGVIEGCKDAGKWAIGVDSDQSPLAPENILTSAMKRVDNACFDIAKAVKEGNVKPGIITYDLKSAGVDIAPTTTNLPKEVLDYVNQAKQDIINGKITVPKTKAEFEAKYGNIYELDD | soluble |
| MKKGSRHNFVVSQENWTLHRKGYQDQRRHQEKVKEAIRKNLPDLVSEENIIMSNGREVIKIPIRSLDEYKIRYNYDKNKHVGQGDGDSQVGDVIARDPSAGQQGPGKGQGAGDQPGEDYFEAEVSILELEELLFRELELPNLQQKEEDHLVVEHIEFNDIRKKGLMGNIDKRRTILSAIKRNALEGRPGLIPIYNDDLRFKTWNEVVRPESKAVVLAMMDTSGSMGRWEKYMARSFFFWMTRFLRTKYETVDIEFIAHHTEAKVVSEEDFFSKGESGGTICSSAYRKALELINEKYDPARYNIYPFHFSDGDNLTSDNARCLKLVHELMESSSMFGYGEVNQYSRHSTLMNAYKNLKDPRFRSYVLKEKGDVYRAMKTFFKKEEEAVSAAALEHHHHHH | soluble |
| MKKGVLIAFEGIDGSGKSSQATLLKDWIELKRDVYLTEWNSSDWIHDIIKEAKKKDLLTPLTFSLIHATDFSDRYERYILPMLKSGFIVISDRYIYTAYARDSVRGVDIDWVKKLYSFAIKPDITFYIRVSPDIALERIKKSKRKIKPQEAGADIFPGLSPEEGFLKYQGLITEVYDKLVKDENFIVIDGTKTPKEIQIQIRKFVGELIDNSF | soluble |
| MKKHIALIFTPINKKYKDALTHYAPPLGLVALANYISERLQNVRISILDGSVTHSMEDIIKFIEDEKPDIVAQSVQLISYENSLVIAKSAHNIGSINVLGGQHATQMADAIIFRQQGLIDYVSIEDGEESLLGLLEERDISEIPNLVFMKDGKINRTKYFQLDLKNAPKLDYSIVDFKPYQKLLNESNFTNPNPINNYLRVYSHKGCGNRKNSVGCVFCGRADKGVRFKSPEKFWEDIKICADEFKADYIFDVGDDFLYNHDWVSKVAEIKPDIRKKFELGIFARANRVNLSIAKKLKKIGVTDVVIGFESGDEEVLRRCNKRDTSTETSLIAADALATAGIDITASFVLGLPGENSESLKKTIKCAEKVVNIITEKLGRPPREMVGNLIEPSPGSIAYNQLLKAYPGKYYLNDYVPLDEMQRDYFKYYFGLDSLKSYLEFRKELNKAAQEIHGLVSFSDSQGWLEDEFV | not soluble |
